In article PMC9541495, “Understanding the interaction of 14‐3‐3 proteins with hDMX and hDM2: a structural and biophysical study” (The Febs Journal, 2022):
[ ]: non-standard residue; d: D form. pS = N[C@@H](COP(=O)(O)O)C(=O)O; FAM = 5,6-carboxyfluorescein; Ahx = NCCCCCC(=O)O

Assays:
14‐3‐3ε = target: T1, 14‐3‐3ε (human, UniProt P62258 1-255); test: fluorescence polarisation; fluorescence anisotropy, direct titration: 14-3-3 protein titrated (1/2 dilution series) against 50 nM FAM-Ahx tracer peptide; 10 mM HEPES, 150 mM NaCl, 0.1% Tween 20, 0.1% BSA, pH 7.4; 384 well plates, triplicates; protein concentration as 14-3-3 monomer; 1:1 fit, biphasic curves fitted as two separate 1:1 events (Kd1, Kd2); conditions: both partners purified
T1 construct: 14-3-3 epsilon, human, full-length protein from the pProEx HTb-His-14-3-3 construct; Written as the protomer; tag removal is told only for the ∆C proteins; source: E. coli BL21(DE3), purified (Ni2+-NTA, dialysis)
T1 sequence (looked up): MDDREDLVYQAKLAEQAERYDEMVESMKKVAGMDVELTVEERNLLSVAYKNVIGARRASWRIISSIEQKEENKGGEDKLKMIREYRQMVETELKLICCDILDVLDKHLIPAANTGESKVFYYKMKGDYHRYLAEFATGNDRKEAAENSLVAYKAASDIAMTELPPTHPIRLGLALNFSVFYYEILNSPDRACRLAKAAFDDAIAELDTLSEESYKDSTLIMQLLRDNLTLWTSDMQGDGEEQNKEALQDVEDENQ

14‐3‐3η = target: T2, 14‐3‐3η (human, UniProt Q04917 1-246); test: as above; conditions: both partners purified
T2 construct: 14-3-3 eta, human, full-length protein from the pProEx HTb-His-14-3-3 construct; Captured on an NTA chip in SPR; source: E. coli BL21(DE3), purified (Ni2+-NTA, dialysis)
T2 sequence (looked up): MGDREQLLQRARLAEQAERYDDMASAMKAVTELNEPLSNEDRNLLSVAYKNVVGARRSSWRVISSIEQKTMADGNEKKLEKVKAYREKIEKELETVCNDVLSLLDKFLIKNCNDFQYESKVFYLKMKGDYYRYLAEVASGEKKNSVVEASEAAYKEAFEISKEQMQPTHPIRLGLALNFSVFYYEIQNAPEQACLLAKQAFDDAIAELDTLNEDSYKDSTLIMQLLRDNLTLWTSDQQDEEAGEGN

| Binder | Kd (14‐3‐3ε) [µM] | Kd (14‐3‐3η) [µM] |
| --- | --- | --- |
| {FAM-Ahx}-DCRRTI[pS]APVVRPK-NH2 (Tracer form used in the FA assays; source: synthetic peptide (Fmoc SPPS, HPLC purified)) [FAM‐Ahx‐hDMX_(361‐374) ^pSer367] | 2.7 ± 0.2 | 0.099 ± 0.005 |
| {FAM-Ahx}-SKLTHSL[pS]TSDITAI-NH2 (hDMX (human double minute 4 protein, hDM4), human, residues 335-349; Tracer form used in the FA assays; source: synthetic peptide (Fmoc SPPS, HPLC purified)) [FAM‐Ahx‐hDMX_(335‐349) ^pSer342] | 53.4 ± 2.9 | 20 ± 1.2 |
| {FAM-Ahx}-QRKRHK[pS]DSISLS-NH2 (hDM2 (human double minute 2 protein), human, residues 180-192; Tracer form used in the FA assays; source: synthetic peptide (Fmoc SPPS, HPLC purified)) [FAM‐Ahx‐hDM2_(180‐192) ^pSer186] | > 260 | 31.6 ± 1.9 |
| {FAM-Ahx}-SRRRAI[pS]ETEEN-NH2 (hDM2 (human double minute 2 protein), human, residues 160-171; Tracer form used in the FA assays; also called hDM2_(160‐171) ^Ser166; source: synthetic peptide (Fmoc SPPS, HPLC purified)) [FAM‐Ahx‐hDM2_(160‐171) ^pSer166] | 23 ± 1.2 | 10.2 ± 0.3 |
